Measured values from the supplement of paper PMC9170038.

Tested on: K4 kissing-loop RNA reporter
Assay: apparent KD of K4 kissing-loop reporter; higher = weaker reporter binding
Details: Eterna round: R107
Experimental: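 RNA-MaP round R107: designed RNA switches with theophylline, tryptophan, arginine or FMN aptamers are transcribed on-chip within common flanks. They are titrated with a labelled K4 kissing-loop RNA reporter in RNA-MaP buffer (100 mM Tris pH 7.5, 80 mM KCl, 4 mM MgCl2), without ligand or with the indicated ligand. Median apparent KD per design.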

[1] = input ligand: theophylline 20 uM
[2] = input ligand: tryptophan 2.4 mM
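Note: bound reporter read as fluorescence of individual clusters on recovered sequencing chips by microscopy, with normalized cluster intensities fitted with a binding model.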

Sequence	apparent KD of K4 kissing-loop reporter (input ligand: FMN 200 uM) [nM]	apparent KD of K4 kissing-loop reporter (input ligand: arginine 13.2 mM) [nM]	apparent KD of K4 kissing-loop reporter (input ligand: none) [nM]	apparent KD of K4 kissing-loop reporter [1] [nM]	apparent KD of K4 kissing-loop reporter [2] [nM]
AUUUUAGAGUGAUGUUCUAUUUGAUCAGAUACCAGACAAUUAUAAGUCCCUUGGCAGCUGUAGCCGAUAAAUUUAAUUAAUUUAA [JR_ExcTheophyA_Sub012]	132	223	158	205	130
AUUUUUUUAUCAGGAUAUUAGUGAUGGUUUUUUUUGUUAGUGAUGUUGAUAUUUGUUUUAUGUAUUUAAGAAGGGAUUGAGAUGU [tzzsullin]	120	41.2	56.9	64.4	84.2
AUUUUUUUGUCAGGAUAUUAGUGUUGGUUUGGUUUGUUAGUGAUGUUGAUAUUUGUUUUAUGUAUUUAAGAAGGGAUUUAGAUGU [zaahullin]	428	330	335	407	293
CAAUGAGUAUAAGAUGAUAUCAUCACAGAAGGAGCGAGUGAUAACUCAGGUAGGUCGCUGAAUUUGUCGAGUGAUGUUCGAUAGA [whbob_SS_Arginine_A_sa119]	209	173	204	188	182
CAAUGAGUUUAAGAUGAUAUCAUCACAGAAGGAGCGAGUGAUAACUCAGGUAGGUCGCUGAAUUUGUCGAGUGAUGUUCGAUAGA [whbob_SS_Arginine_A_sa120]	191	153	186	166	174
CACCCUGGACAAGGAUAUAUCAUGCGCCAAGGGCAGUGAUGUUGCCACAGGCUUGGGUCCAGUUCGAUAGAAGGUGUCUGGUAUU [theeternabot_sameState_KL_FMN_B_4]	203	174	244	159	183
CACGAUGAAUUCUCUAGGAGUGAUGUUUUUCGAGGACCGGUACGGCCGCCACUCGGACCACGAGCGUGGUAGCGGCGAAAAGACU [qpmullin]	782	464	629	443	1070
CACGAUGAAUUCUCUAGGAGUGAUGUUUUUCGAGGACCGGUACGGCCGCCACUCGGACGACGAGCGUGGUAGCGGGCUGAAGACU [iuullin]	521	205	1120	674	771
CAGACCACAGAGUGAUGUUCUGUGUCCGAAGGAGCGCGCGAGAGCGCAGGUAGGUCGCGGAUACAGUUGACGUACCUUCAAGACA [Arg A Ex t3]	193	179	205	230	219
CAGAUAACCUAGGAUACCAGCGUCGCUGACAGGUCGCUGGAGAAGUACAGUGAUGUUGUGCGCCCUUGGCAGCCUGUUUACACAG [theeternabot_exclusion_KL_Theo_B_32]	255	204	223	207	198
CAGCAGAGUGAUGUUCUGCUUACUGCGGAUACCAGCUUUGCCAGAGGCCCUUGGCAGCCGGGCGGCUCAGUGAUGUUGGGUUGUU [Same State Theophylline A GF 14]	234	140	186	208	167
CAGCGGAGUGAUGUUCUGCUUACUCCGGAUACCAGCUUCGCCAGAGGCCCUUGGCAGCCGGGCGGCUCAGUGAUGUUGGGUUGCU [Same State Theophylline A GF 16]	934	532	870	979	765
CAGGUCACAGAGUGAUGUUCUGUGUCCGAAGGAGCGAUGGUCGCAUCAGGUAGGUCGCGGAUACAGUUGAAGUCCUAUCUAGACG [#10 K4 Arginine A Exclusion]	143	111	119	123	134
CAUACGCAUGGAGGAUAUGAGAUUUCUCAUAUUAUUGUUUAUUCUCAGUGAUGUUGGGAUUUAAACUCAGAAGGCCAUGUGUAUG [Ex FMN B 9]	273	124	138	137	132
CAUACUUGCCGACCGCGGCACGCUAGUGAUACCAGUAACACCGUCUACCCUUGGCAGCACGAGAGAGUGAUGUUUUCAGCAGCCA [theeternabot_sameState_KL_Theo_A_3]	1030	722	982	736	857
CAUAGGAAACUAUGUAUCUCUCUGACUGAAGGAGCGCGUGAAAACGCAGGUAGGUCGCAGAAUUUAACAGAGAGUGAUGUUCUCU [Ex Arginine A K4 9]	310	259	319	277	258
CAUAGGAAACUAUGUAUCUCUCUUACUGAAGGAGCGCGUGAAAACGCAGGUAGGUCGCAGAAUUUAAUAGAGAGUGAUGUUCUCA [Ex Arginine A K4 6]	393	332	496	513	473
CAUAUUUCGGCGGCCGCCACUGACCAUAGCCUUCGAUGGCCAGUGAUGUUGGCCUCUGGCUCUAACAGGACCGGGCCGAAUUGUG [Uslaxe]	239	137	198	145	116
CAUCCUACACCUCAAGCAGUGAUGUUGCUACGAGGACCGGUACGGCCGCCACUCGUUUAAGCAUGGAUAUUAGCUGUGCUGACUA [theeternabot_exclusion_KL_Trp_A_16]	468	458	461	576	439
CAUGUGUCUGGAAGGAGCGCGGGUUGGUUAAACACUGUCGCGGGCCAGUGAUGUUGGAAUCCGCAGGUAGGUCGCCAGCCACUUG [Araton]	284	476	350	533	460
CAUUCUAAAUGCAGUGAUGUUGCAACUGAUACCAGUAUCGAAAGAUACCCUUGGCAGCGGAAAACCGCUACGUUUUUUUAGAAUG [Ex Theophylline A K4 23]	264	369	352	438	243
CCACUAUUCUUGUCGGAGUGAUGUUCCGAUACCAGCAUAGAGAUGUGCCCUUGGCAGCGGUCUAUUCUACGCCCGUCUAUUUCAA [Somari]	165	125	135	157	148
